Test results reported in FireProtDB (doi:10.1002/pro.100).

B1: Prolactin, P01236 (parent)
chain: MNIKGSPWKGSLLLLLVSNLLLCQSVAPLPICPGGAARCQVTLRDLFDRAVVLSHYIHNLSSEMFSEFDKRYTHGRGFITKAINSCHTSSLATPEDKEQAQQMNQKDFLSLIVSILRSWNEPLYHLVTEVRGMQEAPEAILSKAVEIEEQTKRLLEGMELIVSQVHPETKENEIYPVWSGLPSLQMADEESRLSAYYNLLHCLRRDSHKIDNYLKLLKCRIIHNNNC

Variants of: B1
Conditions: Homo sapiens, 25 °C, Urea, Fluorescence, Potassium phosphate 25 mM, NaCl 25 mM, reversible: Yes, structure 2Q98, whole UniProt chain shown

| Variant | ddG of mutation (higher = less stable) (pH 5.8) [kcal/mol] | denaturant m value (pH 5.8) [kcal/mol/M] | denaturant midpoint (higher = more stable) (pH 5.8) [M] | unfolding free energy (pH 5.8) [kcal/mol] | ddG of mutation (higher = less stable) (pH 7.8) [kcal/mol] | denaturant m value (pH 7.8) [kcal/mol/M] | denaturant midpoint (higher = more stable) (pH 7.8) [M] | unfolding free energy (pH 7.8) [kcal/mol] |
| --- | --- | --- | --- | --- | --- | --- | --- | --- |
| MNIKGSPWKGSLLLLLVSNLLLCQSVAPLPICPGGAARCQVTLRDLFDRAVVLSAYIHNLSSEMFSEFDKRYTHGRGFITKAINSCHTSSLATPEDKEQAQQMNQKDFLSLIVSILRSWNEPLYHLVTEVRGMQEAPEAILSKAVEIEEQTKRLLEGMELIVSQVHPETKENEIYPVWSGLPSLQMADEESRLSAYYNLLHCLRRDSHKIDNYLKLLKCRIIHNNNC [H55A] | -0.09 | 0.77 | 5.71 | 4.39 | – | – | – | – |
| MNIKGSPWKGSLLLLLVSNLLLCQSVAPLPICPGGAARCQVTLRDLFDRAVVLSHYIHNLSSEMFSEFDKRYTHGRGFITKAINSCHTSSLATPEDKEQAQQMNQKDFLSLIVSILRSWNEPLYHLVTEVRGMQEAPEAILSKAVEIEEQTKRLLEGMELIVSQVHPETKENEIYPVWSGLPSLQMADEESRLSAYYNLLACLRRDSAKIDNYLKLLKCRIIHNNNC [H201A H208A] | -1.71 | 0.93 | 6.49 | 6.01 | 0.41 | 1.17 | 6.66 | 7.79 |
| MNIKGSPWKGSLLLLLVSNLLLCQSVAPLPICPGGAARCQVTLRDLFDRAVVLSAYIHNLSSEMFSEFDKRYTHGRGFITKAINSCHTSSLATPEDKEQAQQMNQKDFLSLIVSILRSWNEPLYHLVTEVRGMQEAPEAILSKAVEIEEQTKRLLEGMELIVSQVHPETKENEIYPVWSGLPSLQMADEESRLSAYYNLLHCLRRDSAKIDNYLKLLKCRIIHNNNC [H55A H208A] | -2.06 | 1.05 | 6.08 | 6.36 | -2.57 | 1.62 | 6.64 | 10.8 |
| MNIKGSPWKGSLLLLLVSNLLLCQSVAPLPICPGGAARCQVTLRDLFDRAVVLSHYIANLSSEMFSEFDKRYTHGRGFITKAINSCHTSSLATPEDKEQAQQMNQKDFLSLIVSILRSWNEPLYHLVTEVRGMQEAPEAILSKAVEIEEQTKRLLEGMELIVSQVHPETKENEIYPVWSGLPSLQMADEESRLSAYYNLLACLRRDSAKIDNYLKLLKCRIIHNNNC [H58A H201A H208A] | -3.98 | 1.22 | 6.81 | 8.28 | -0.87 | 1.31 | 6.94 | 9.07 |
| MNIKGSPWKGSLLLLLVSNLLLCQSVAPLPICPGGAARCQVTLRDLFDRAVVLSHYIHNLSSEMFSEFDKRYTHGRGFITKAINSCATSSLATPEDKEQAQQMNQKDFLSLIVSILRSWNEPLYHLVTEVRGMQEAPEAILSKAVEIEEQTKRLLEGMELIVSQVHPETKENEIYPVWSGLPSLQMADEESRLSAYYNLLHCLRRDSHKIDNYLKLLKCRIIHNNNC [H87A] | -2.26 | 1.13 | 5.81 | 6.56 | 0.02 | 1.35 | 6.08 | 8.18 |
| MNIKGSPWKGSLLLLLVSNLLLCQSVAPLPICPGGAARCQVTLRDLFDRAVVLSHYIHNLSSEMFSEFDKRYTHGRGFITKAINSCHTSSLATPEDKEQAQQMNQKDFLSLIVSILRSWNEPLYHLVTEVRGMQEAPEAILSKAVEIEEQTKRLLEGMELIVSQVHPETKENEIYPVWSGLPSLQMADEESRLSAYYNLLACLRRDSHKIDNYLKLLKCRIIHNNNC [H201A] | -0.24 | 0.76 | 5.98 | 4.54 | 0.35 | 1.26 | 6.22 | 7.85 |
| MNIKGSPWKGSLLLLLVSNLLLCQSVAPLPICPGGAARCQVTLRDLFDRAVVLSHYIHNLSSEMFSEFDKRYTHGRGFITKAINSCHTSSLATPEDKEQAQQMNQKDFLSLIVSILRSWNEPLYHLVTEVRGMQEAPEAILSKAVEIEEQTKRLLEGMELIVSQVAPETKENEIYPVWSGLPSLQMADEESRLSAYYNLLHCLRRDSHKIDNYLKLLKCRIIHNNNC [H166A] | -2.04 | 1.08 | 5.87 | 6.34 | -0.58 | 1.38 | 6.38 | 8.78 |
| MNIKGSPWKGSLLLLLVSNLLLCQSVAPLPICPGGAARCQVTLRDLFDRAVVLSAYIANLSSEMFSEFDKRYTHGRGFITKAINSCHTSSLATPEDKEQAQQMNQKDFLSLIVSILRSWNEPLYHLVTEVRGMQEAPEAILSKAVEIEEQTKRLLEGMELIVSQVHPETKENEIYPVWSGLPSLQMADEESRLSAYYNLLHCLRRDSAKIDNYLKLLKCRIIHNNNC [H55A H58A H208A] | -3.41 | 1.16 | 6.67 | 7.71 | -3.11 | 1.59 | 7.1 | 11.3 |
| MNIKGSPWKGSLLLLLVSNLLLCQSVAPLPICPGGAARCQVTLRDLFDRAVVLSHYIANLSSEMFSEFDKRYTHGRGFITKAINSCHTSSLATPEDKEQAQQMNQKDFLSLIVSILRSWNEPLYHLVTEVRGMQEAPEAILSKAVEIEEQTKRLLEGMELIVSQVHPETKENEIYPVWSGLPSLQMADEESRLSAYYNLLHCLRRDSHKIDNYLKLLKCRIIHNNNC [H58A] | -3.1 | 1.2 | 6.18 | 7.4 | -2.05 | 1.51 | 6.79 | 10.2 |
| MNIKGSPWKGSLLLLLVSNLLLCQSVAPLPICPGGAARCQVTLRDLFDRAVVLSHYIANLSSEMFSEFDKRYTHGRGFITKAINSCHTSSLATPEDKEQAQQMNQKDFLSLIVSILRSWNEPLYHLVTEVRGMQEAPEAILSKAVEIEEQTKRLLEGMELIVSQVHPETKENEIYPVWSGLPSLQMADEESRLSAYYNLLHCLRRDSAKIDNYLKLLKCRIIHNNNC [H58A H208A] | -3.06 | 1.17 | 6.31 | 7.36 | – | – | – | – |
| MNIKGSPWKGSLLLLLVSNLLLCQSVAPLPICPGGAARCQVTLRDLFDRAVVLSHYIHNLSSEMFSEFDKRYTAGRGFITKAINSCHTSSLATPEDKEQAQQMNQKDFLSLIVSILRSWNEPLYHLVTEVRGMQEAPEAILSKAVEIEEQTKRLLEGMELIVSQVHPETKENEIYPVWSGLPSLQMADEESRLSAYYNLLHCLRRDSHKIDNYLKLLKCRIIHNNNC [H74A] | 0.11 | 0.81 | 5.14 | 4.19 | -1.55 | 1.58 | 6.19 | 9.75 |
| MNIKGSPWKGSLLLLLVSNLLLCQSVAPLPICPGGAARCQVTLRDLFDRAVVLSHYIANLSSEMFSEFDKRYTHGRGFITKAINSCHTSSLATPEDKEQAQQMNQKDFLSLIVSILRSWNEPLYHLVTEVRGMQEAPEAILSKAVEIEEQTKRLLEGMELIVSQVHPETKENEIYPVWSGLPSLQMADEESRLSAYYNLLACLRRDSHKIDNYLKLLKCRIIHNNNC [H58A H201A] | -3.7 | 1.19 | 6.7 | 8 | -1.53 | 1.49 | 6.53 | 9.73 |
| MNIKGSPWKGSLLLLLVSNLLLCQSVAPLPICPGGAARCQVTLRDLFDRAVVLSHYIHNLSSEMFSEFDKRYTHGRGFITKAINSCHTSSLATPEDKEQAQQMNQKDFLSLIVSILRSWNEPLYALVTEVRGMQEAPEAILSKAVEIEEQTKRLLEGMELIVSQVHPETKENEIYPVWSGLPSLQMADEESRLSAYYNLLHCLRRDSHKIDNYLKLLKCRIIHNNNC [H125A] | -1.07 | 0.94 | 5.72 | 5.37 | -0.33 | 1.4 | 6.1 | 8.53 |
